Data reported in the supplement of paper PMC10065799, “High-throughput profiling of sequence recognition by tyrosine kinases and SH2 domains using bacterial peptide display” (eLife, 2023).

Experiments:
AncSZ = test: phosphorylation enrichment, bacterial display (enrichment ratio); higher = better substrate or ligand; peptides without Tyr show the background
EPHB1 = EPHB1 (UniProt P54762); test: as above
EPHB2 = EPHB2 (UniProt P29323); test: as above
FGFR1 = FGFR1 (UniProt P11362); test: as above
FGFR3 = FGFR3 (UniProt P22607); test: as above
Sequence of FGFR3 (P22607 whole entry, looked up): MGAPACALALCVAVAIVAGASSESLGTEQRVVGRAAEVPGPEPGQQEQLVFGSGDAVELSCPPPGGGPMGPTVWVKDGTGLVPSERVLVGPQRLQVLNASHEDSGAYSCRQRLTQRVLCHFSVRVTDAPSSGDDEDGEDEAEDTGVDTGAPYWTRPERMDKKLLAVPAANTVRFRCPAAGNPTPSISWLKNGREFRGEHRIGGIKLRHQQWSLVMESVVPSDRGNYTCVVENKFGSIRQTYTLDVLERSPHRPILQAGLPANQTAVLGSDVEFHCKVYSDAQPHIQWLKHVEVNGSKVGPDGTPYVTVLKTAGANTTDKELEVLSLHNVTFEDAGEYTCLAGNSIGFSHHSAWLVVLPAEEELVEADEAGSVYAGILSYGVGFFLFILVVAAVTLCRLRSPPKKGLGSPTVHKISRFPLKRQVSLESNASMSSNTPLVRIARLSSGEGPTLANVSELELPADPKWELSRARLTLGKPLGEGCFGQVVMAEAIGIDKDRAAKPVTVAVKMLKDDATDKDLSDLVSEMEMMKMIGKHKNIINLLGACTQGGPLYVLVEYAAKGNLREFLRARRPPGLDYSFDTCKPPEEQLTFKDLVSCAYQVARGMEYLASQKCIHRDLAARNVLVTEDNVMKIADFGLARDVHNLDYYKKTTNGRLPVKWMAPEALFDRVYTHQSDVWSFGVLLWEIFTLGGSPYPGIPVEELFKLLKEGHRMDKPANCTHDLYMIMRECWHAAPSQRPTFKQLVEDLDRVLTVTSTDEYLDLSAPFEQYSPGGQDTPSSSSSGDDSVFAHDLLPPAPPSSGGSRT

Fer (mouse) = test: as above
Fes = Fes (UniProt P07332); test: as above
Fyn = Fyn (UniProt P06241); test: as above
Sequence of Fyn (P06241 whole entry, looked up): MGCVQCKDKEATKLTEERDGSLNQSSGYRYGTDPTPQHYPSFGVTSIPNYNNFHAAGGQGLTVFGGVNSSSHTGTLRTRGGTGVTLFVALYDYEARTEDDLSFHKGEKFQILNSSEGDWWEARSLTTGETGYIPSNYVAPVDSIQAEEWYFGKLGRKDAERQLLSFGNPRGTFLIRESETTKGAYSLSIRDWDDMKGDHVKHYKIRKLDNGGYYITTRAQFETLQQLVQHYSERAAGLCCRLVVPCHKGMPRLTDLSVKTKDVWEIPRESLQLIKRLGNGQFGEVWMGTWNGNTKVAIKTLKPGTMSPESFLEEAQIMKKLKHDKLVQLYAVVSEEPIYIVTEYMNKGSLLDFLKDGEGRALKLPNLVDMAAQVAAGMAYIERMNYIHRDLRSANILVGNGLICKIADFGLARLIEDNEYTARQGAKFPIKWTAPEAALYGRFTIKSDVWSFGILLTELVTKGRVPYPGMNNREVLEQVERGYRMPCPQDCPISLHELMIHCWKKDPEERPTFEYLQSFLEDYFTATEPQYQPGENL

Hck = Hck (UniProt P08631); test: as above
Sequence of Hck (P08631 whole entry, looked up): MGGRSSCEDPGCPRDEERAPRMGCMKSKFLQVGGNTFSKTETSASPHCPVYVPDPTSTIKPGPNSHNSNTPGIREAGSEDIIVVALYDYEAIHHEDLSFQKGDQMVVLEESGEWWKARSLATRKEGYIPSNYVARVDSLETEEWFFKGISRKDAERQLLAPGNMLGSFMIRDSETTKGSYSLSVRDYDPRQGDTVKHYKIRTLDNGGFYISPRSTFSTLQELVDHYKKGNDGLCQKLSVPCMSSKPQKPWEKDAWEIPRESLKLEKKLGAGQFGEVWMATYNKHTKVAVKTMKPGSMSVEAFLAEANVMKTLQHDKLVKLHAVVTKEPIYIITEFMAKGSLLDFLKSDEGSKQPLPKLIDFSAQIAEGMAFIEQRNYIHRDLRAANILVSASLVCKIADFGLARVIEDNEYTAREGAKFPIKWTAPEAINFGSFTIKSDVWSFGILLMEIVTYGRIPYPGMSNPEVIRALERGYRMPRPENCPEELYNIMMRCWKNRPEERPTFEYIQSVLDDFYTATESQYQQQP

Jak2 = Jak2 (UniProt O60674); test: as above
MERTK = MERTK (UniProt Q12866); test: as above
Sequence of MERTK (Q12866 whole entry, looked up): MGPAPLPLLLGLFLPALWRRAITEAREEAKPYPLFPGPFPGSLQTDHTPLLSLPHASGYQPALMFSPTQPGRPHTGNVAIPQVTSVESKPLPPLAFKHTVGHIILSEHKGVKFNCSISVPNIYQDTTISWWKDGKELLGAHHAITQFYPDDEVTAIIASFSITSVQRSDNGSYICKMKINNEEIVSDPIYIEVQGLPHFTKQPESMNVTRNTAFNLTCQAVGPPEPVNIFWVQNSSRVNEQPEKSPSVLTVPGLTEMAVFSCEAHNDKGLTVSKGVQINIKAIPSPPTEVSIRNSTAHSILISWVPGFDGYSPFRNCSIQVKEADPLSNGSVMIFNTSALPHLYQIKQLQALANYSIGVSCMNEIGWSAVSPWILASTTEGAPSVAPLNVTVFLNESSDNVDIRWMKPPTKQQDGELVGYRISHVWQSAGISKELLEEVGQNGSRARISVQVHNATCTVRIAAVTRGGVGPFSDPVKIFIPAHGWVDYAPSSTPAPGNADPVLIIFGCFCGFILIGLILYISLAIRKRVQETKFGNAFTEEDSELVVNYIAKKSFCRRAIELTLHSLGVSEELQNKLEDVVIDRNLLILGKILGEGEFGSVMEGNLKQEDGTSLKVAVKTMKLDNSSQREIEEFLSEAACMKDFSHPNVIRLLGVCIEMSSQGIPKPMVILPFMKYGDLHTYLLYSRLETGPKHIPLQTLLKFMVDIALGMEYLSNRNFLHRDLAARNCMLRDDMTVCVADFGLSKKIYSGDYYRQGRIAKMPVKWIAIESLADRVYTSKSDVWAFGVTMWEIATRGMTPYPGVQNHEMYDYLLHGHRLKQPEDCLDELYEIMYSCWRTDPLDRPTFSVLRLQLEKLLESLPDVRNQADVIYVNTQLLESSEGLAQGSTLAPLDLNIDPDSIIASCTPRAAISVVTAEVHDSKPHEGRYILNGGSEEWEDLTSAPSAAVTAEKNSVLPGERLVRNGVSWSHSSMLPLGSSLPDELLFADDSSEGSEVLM

c-Abl (mouse) = test: as above
c-Src = test: as above
Grb2 SH2 = Grb2 SH2 (UniProt P62993); test: SH2 binding enrichment of the phosphorylated peptide, bacterial display (enrichment ratio); higher = better substrate or ligand; peptides without Tyr show the background
SHP2-C SH2 = test: as above
c-Src SH2 = test: as above
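Wherever SH2 binding enrichment of the phosphorylated peptide, bacterial display is given: peptide library displayed on the E. coli surface as eCPX fusions, selected cells deep-sequenced, score is each peptide's frequency after selection divided by its frequency in the input.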
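Wherever phosphorylation enrichment, bacterial display is given: 11-residue human phosphosite peptides and single-mutation variants displayed on the E. coli surface, counted by deep sequencing, each peptide's frequency after selection divided by its frequency in the unselected input library; frequency after pTyr selection over input frequency; kinase dosed for 20-30% of maximal phosphorylation in three min.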

Sequence of EPHB1 (P54762 whole entry, looked up): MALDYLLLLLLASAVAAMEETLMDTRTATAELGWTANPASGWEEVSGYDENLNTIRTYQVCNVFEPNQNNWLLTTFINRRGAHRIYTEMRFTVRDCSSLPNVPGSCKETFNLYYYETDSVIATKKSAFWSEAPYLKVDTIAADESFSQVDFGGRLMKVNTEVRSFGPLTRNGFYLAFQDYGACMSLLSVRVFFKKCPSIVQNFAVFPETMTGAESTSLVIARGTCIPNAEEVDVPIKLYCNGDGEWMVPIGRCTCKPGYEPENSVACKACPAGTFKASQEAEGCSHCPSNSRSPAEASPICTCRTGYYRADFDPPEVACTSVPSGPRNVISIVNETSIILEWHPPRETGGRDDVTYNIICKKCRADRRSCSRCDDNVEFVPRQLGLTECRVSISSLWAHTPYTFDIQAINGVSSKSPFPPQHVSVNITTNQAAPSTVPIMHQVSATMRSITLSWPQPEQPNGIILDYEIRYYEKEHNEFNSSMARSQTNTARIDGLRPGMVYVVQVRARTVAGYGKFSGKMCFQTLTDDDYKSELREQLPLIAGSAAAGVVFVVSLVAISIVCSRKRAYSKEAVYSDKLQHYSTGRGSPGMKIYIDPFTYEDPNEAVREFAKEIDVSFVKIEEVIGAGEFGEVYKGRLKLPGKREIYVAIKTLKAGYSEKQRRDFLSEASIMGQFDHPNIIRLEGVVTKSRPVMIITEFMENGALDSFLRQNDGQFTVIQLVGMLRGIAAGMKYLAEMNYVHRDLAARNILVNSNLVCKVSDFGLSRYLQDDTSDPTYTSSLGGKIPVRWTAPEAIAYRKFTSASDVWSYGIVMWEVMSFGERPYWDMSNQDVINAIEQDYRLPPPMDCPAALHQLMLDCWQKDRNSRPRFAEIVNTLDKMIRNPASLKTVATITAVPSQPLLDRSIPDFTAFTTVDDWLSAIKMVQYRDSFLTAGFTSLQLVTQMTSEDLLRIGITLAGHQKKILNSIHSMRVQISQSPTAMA
Sequence of EPHB2 (P29323 whole entry, looked up): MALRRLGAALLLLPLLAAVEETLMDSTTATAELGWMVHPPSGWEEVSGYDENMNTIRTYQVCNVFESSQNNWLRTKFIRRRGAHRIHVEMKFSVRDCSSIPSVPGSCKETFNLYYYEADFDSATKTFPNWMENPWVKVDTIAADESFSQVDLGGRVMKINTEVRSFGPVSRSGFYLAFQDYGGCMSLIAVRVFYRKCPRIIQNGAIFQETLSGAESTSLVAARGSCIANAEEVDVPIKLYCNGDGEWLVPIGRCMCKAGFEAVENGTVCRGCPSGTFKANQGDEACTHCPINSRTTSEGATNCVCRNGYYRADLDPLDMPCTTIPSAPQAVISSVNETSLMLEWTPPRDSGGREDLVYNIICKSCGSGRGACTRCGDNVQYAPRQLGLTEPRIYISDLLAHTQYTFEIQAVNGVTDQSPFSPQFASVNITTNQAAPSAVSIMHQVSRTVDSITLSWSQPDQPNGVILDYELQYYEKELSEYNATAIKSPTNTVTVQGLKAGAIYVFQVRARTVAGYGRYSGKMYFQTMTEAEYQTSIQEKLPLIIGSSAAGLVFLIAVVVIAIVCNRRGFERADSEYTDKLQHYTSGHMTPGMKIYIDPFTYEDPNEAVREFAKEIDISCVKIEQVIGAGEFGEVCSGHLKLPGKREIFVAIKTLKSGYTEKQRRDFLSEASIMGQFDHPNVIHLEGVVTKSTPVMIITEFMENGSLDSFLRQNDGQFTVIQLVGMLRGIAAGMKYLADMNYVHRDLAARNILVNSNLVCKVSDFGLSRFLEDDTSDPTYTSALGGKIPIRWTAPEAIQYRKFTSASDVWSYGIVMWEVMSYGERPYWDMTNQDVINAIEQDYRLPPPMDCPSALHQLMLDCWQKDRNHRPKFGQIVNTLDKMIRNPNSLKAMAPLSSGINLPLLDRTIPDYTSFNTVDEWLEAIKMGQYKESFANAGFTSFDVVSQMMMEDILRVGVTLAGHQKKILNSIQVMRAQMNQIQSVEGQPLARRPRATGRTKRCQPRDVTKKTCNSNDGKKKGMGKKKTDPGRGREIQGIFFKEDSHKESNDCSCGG

Row | Sequence | phosphorylation enrichment (AncSZ) | phosphorylation enrichment (EPHB1) | phosphorylation enrichment (EPHB2) | phosphorylation enrichment (FGFR1) | phosphorylation enrichment (FGFR3) | phosphorylation enrichment (Fer (mouse)) | phosphorylation enrichment (Fes) | phosphorylation enrichment (Fyn) | phosphorylation enrichment (Hck) | phosphorylation enrichment (Jak2) | phosphorylation enrichment (MERTK) | phosphorylation enrichment (c-Abl (mouse)) | phosphorylation enrichment (c-Src) | SH2 binding enrichment (Grb2 SH2) | SH2 binding enrichment (SHP2-C SH2) | SH2 binding enrichment (c-Src SH2)
1 | HFMELYDLNRD [BBS2_Y648_R643H_YF] | 1.1 | 0.625 | 0.594 | 0.497 | 0.723 | 0.784 | 1.18 | 1.38 | 1.48 | 1.28 | 0.563 | 0.943 | 4.64 | 1.25 | 1.51 | 0.654
2 | HFPDVYAWEQL [ALX3_Y181_R183W_YF] | 1.2 | 0.922 | 0.935 | 0.616 | 0.674 | 11.3 | 1.46 | 7.03 | 3.06 | 0.893 | 2.25 | 0.632 | 5.25 | 1.23 | 0.662 | 0.809
3 | HHIDYYKKTTN [FGFR1_Y654] | 0.577 | 0.47 | 0.721 | 0.568 | 0.803 | 0.646 | 0.633 | 0.711 | 0.481 | 0.592 | 0.663 | 0.569 | 0.481 | 0.699 | 0.535 | 0.443
4 | HHTNEYEFDEL [TGM1_Y134_D132N_YF] | 1.56 | 0.691 | 1.01 | 0.702 | 0.832 | 0.558 | 1.42 | 1.13 | 0.719 | 0.884 | 0.607 | 0.624 | 0.939 | 0.678 | 0.783 | 0.828
5 | HIILLYIFLKN [STXBP1_Y411_R406H] | 1.27 | 0.906 | 0.567 | 0.755 | 1.08 | 0.495 | 1.6 | 0.447 | 0.501 | 1.16 | 0.657 | 1.2 | 0.568 | 1.86 | 1.72 | 1.51
6 | HILQLYRCREE [ALPK3_Y342_T338I] | 0.945 | 0.924 | 0.705 | 0.763 | 0.871 | 0.556 | 1.05 | 0.65 | 0.553 | 0.709 | 0.515 | 0.423 | 0.577 | 0.729 | 0.748 | 0.546
7 | HKETGYVVERP [BCLAF1_Y466_L461H] | 0.746 | 0.475 | 0.502 | 0.582 | 0.656 | 0.439 | 1.36 | 0.497 | 0.448 | 1.14 | 0.445 | 1.28 | 0.652 | 0.747 | 0.401 | 0.394
8 | HKLSSYEYDFE [BTK_Y40_Y39S] | 1.84 | 0.822 | 0.789 | 0.952 | 1.04 | 1.03 | 1.51 | 0.72 | 0.952 | 1.38 | 0.911 | 0.966 | 1.43 | 0.69 | 0.411 | 1.33
9 | HLATEYVFSDF [PANX1_Y10_Q5H] | 2.12 | 0.808 | 1.04 | 1.67 | 1.23 | 0.788 | 1.39 | 0.935 | 0.661 | 1.17 | 0.639 | 0.863 | 1.28 | 0.755 | 0.884 | 0.576
10 | HLITAYRAHGF [PDHA1_Y118] | 0.648 | 0.572 | 0.389 | 0.701 | 0.609 | 0.489 | 0.74 | 0.551 | 0.536 | 0.408 | 0.369 | 0.309 | 0.344 | 0.981 | 0.642 | 0.422
11 | HLSPEYKQNEI [GJB1_Y243_R238H] | 0.966 | 0.68 | 1.33 | 0.857 | 0.728 | 0.418 | 1.07 | 0.594 | 0.614 | 0.874 | 0.676 | 0.716 | 0.532 | 0.905 | 0.683 | 0.611
12 | HNELYYEAAEH [VANGL1_Y345_E347A] | 1.56 | 1.12 | 1.06 | 5.49 | 4.38 | 7.27 | 1.44 | 1.52 | 2.1 | 1.16 | 5.06 | 0.854 | 1.79 | 0.954 | 0.606 | 0.777
13 | HNGVSYFINLC [IGF2R_Y2024_YF] | 1.57 | 1.17 | 0.822 | 0.783 | 0.997 | 0.587 | 2.08 | 0.659 | 0.618 | 2.2 | 0.613 | 1.24 | 0.668 | 0.755 | 0.573 | 0.439
14 | HNLDFYKQTTN [FGFR3_Y648_K650Q_YF] | 0.948 | 0.623 | 0.494 | 0.581 | 0.631 | 0.409 | 1.35 | 0.368 | 0.455 | 0.793 | 0.581 | 0.683 | 0.409 | 0.874 | 0.488 | 0.395
15 | HNLPIYEGFAL [ACTA1_Y168_V165L_YF] | 1.86 | 17.5 | 24.3 | 0.677 | 1.13 | 21.9 | 2.8 | 14.1 | 12.8 | 0.996 | 12.6 | 14 | 9.44 | 0.837 | 0.721 | 0.579
16 | HQNGTYGLHQD [SGSH_Y89_M88T] | 0.615 | 0.418 | 0.541 | 0.71 | 0.727 | 0.431 | 0.764 | 0.61 | 0.753 | 0.459 | 0.414 | 0.555 | 0.599 | 1.04 | 0.666 | 0.401
17 | HRTLVYGGIFL [FBP1_Y259] | 1.19 | 0.677 | 0.84 | 0.704 | 1.01 | 1.01 | 1.38 | 5.36 | 3.69 | 1.07 | 0.532 | 1.06 | 3.83 | 0.747 | 0.493 | 0.358

Row | Sequence | phosphorylation enrichment (AncSZ) | phosphorylation enrichment (EPHB1) | phosphorylation enrichment (EPHB2) | phosphorylation enrichment (FGFR1) | phosphorylation enrichment (FGFR3) | phosphorylation enrichment (Fer (mouse)) | phosphorylation enrichment (Fes) | phosphorylation enrichment (Fyn) | phosphorylation enrichment (Hck) | phosphorylation enrichment (Jak2) | phosphorylation enrichment (MERTK) | phosphorylation enrichment (c-Abl (mouse)) | phosphorylation enrichment (c-Src) | SH2 binding enrichment (Grb2 SH2) | SH2 binding enrichment (SHP2-C SH2) | SH2 binding enrichment (c-Src SH2)
18 | HSFQCYGQNEA [ENTPD3_Y262_R264Q] | 0.996 | 0.551 | 0.452 | 0.604 | 0.71 | 0.382 | 1 | 0.535 | 0.701 | 1.21 | 0.422 | 0.793 | 0.441 | 0.968 | 0.62 | 0.596
19 | HSLHDYKEALM [ADA2_Y337] | 0.663 | 0.546 | 0.448 | 0.371 | 0.567 | 0.44 | 0.844 | 0.444 | 0.342 | 0.696 | 0.431 | 0.664 | 0.522 | 0.702 | 0.426 | 0.418
20 | HSVVQYVGGVM [FGGY_Y136_L134V] | 0.989 | 0.517 | 0.572 | 0.447 | 0.629 | 0.643 | 0.911 | 0.465 | 0.609 | 0.726 | 0.603 | 0.61 | 0.491 | 0.885 | 2.89 | 0.465
21 | HVIKLFGACSQ [RET_Y791_Y791F] | 1.52 | 1.01 | 0.995 | 0.709 | 1.26 | 0.763 | 1.75 | 0.816 | 0.855 | 0.994 | 0.719 | 1.1 | 0.519 | 0.938 | 0.979 | 0.667
22 | HYECKYVINAI [MAOA_Y268] | 1.38 | 0.841 | 0.788 | 0.557 | 0.957 | 0.506 | 1.61 | 0.507 | 0.657 | 0.95 | 0.66 | 0.86 | 0.859 | 0.735 | 0.634 | 0.59
23 | ICANKYMVKSC [RPL10_Y75] | 0.719 | 0.476 | 0.445 | 0.385 | 0.514 | 0.464 | 0.815 | 0.406 | 0.424 | 0.735 | 0.409 | 0.524 | 0.44 | 1.09 | 1.12 | 1.13
24 | IDNKMYDPKMN [ENPP1_Y280] | 0.699 | 0.369 | 0.362 | 0.553 | 0.471 | 0.355 | 0.729 | 0.404 | 0.478 | 0.385 | 0.304 | 0.41 | 0.344 | 1.17 | 0.623 | 0.578
25 | IDSTPYRQWFE [RPS8_Y109_YF] | 0.739 | 0.487 | 0.464 | 0.494 | 0.551 | 0.406 | 0.856 | 0.302 | 0.442 | 0.855 | 0.357 | 0.665 | 0.368 | 0.758 | 0.744 | 0.417
26 | IENKLYGTSDP [RET_Y1062_M1064T] | 0.858 | 0.563 | 0.544 | 0.527 | 0.559 | 0.549 | 0.869 | 0.59 | 0.553 | 0.817 | 0.526 | 0.818 | 0.509 | 1.02 | 0.604 | 0.465
27 | IENPQYFSDAC [NTRK1_Y496] | 1.13 | 0.648 | 0.616 | 0.673 | 0.962 | 0.524 | 1.24 | 0.516 | 0.626 | 1.14 | 0.546 | 1.01 | 0.542 | 0.789 | 1.02 | 0.524
28 | IFGVSYGEYRY [CFTR_Y512_D513G] | 0.9 | 0.852 | 0.691 | 0.603 | 0.819 | 0.736 | 1.33 | 7.22 | 4.11 | 0.858 | 0.537 | 0.632 | 5.62 | 1.05 | 1.1 | 0.933
29 | IFKAAYFGVFD [SLC25A4_Y191_R188K_YF] | 1.1 | 0.587 | 0.524 | 0.529 | 0.65 | 0.534 | 1.21 | 0.544 | 0.504 | 1.08 | 0.531 | 0.773 | 0.625 | 1.03 | 0.766 | 1.01
30 | IGEVVYQWAVM [GRIN2A_Y502_R504W] | 2.06 | 0.89 | 0.598 | 1.03 | 1.15 | 7.77 | 1.48 | 1.16 | 1.1 | 1.17 | 0.904 | 1.57 | 1.47 | 0.845 | 0.61 | 0.532
31 | IGMSSYVMLAS [GGCX_Y301_F299S] | 1.34 | 0.853 | 0.655 | 1.88 | 1.36 | 0.522 | 1.2 | 0.496 | 0.452 | 1.66 | 0.878 | 0.875 | 0.546 | 0.771 | 1.79 | 1.43
32 | IHETTYNSIMK [ACTA1_Y281] | 0.475 | 0.332 | 0.338 | 0.384 | 0.436 | 0.414 | 0.711 | 0.746 | 1.38 | 0.477 | 0.3 | 0.572 | 1.04 | 0.862 | 1.68 | 1.93
33 | IIWDSYTTNKM [GNB4_Y85] | 1.3 | 0.68 | 0.656 | 0.575 | 0.671 | 0.527 | 1.21 | 0.682 | 0.506 | 0.873 | 0.401 | 0.596 | 0.321 | 0.941 | 0.886 | 0.438
